# Where “and” joins values, the source holds several entries; their conditions need not be identical. Equal values may be shown once. Entries after “also recorded” stand apart in the source; their conditions may differ.
# B1: clazakizumab (antibody, chains of the INN, looked up, V domains shown)
# VH: EVQLVESGGGLVQPGGSLRLSCAASGFSLSNYYVTWVRQAPGKGLEWVGIIYGSDETAYATSAIGRFTISRDNSKNTLYLQMNSLRAEDTAVYYCARDDSSDWDAKFNLWGQGTLVTVSS
# VL: AIQMTQSPSSLSASVGDRVTITCQASQSINNELSWYQQKPGKAPKLLIYRASTLASGVPSRFSGSGSGTDFTLTISSLQPDDFATYYCQQGYSLRNIDNAFGGGTKVEIK
# notes: Genetically engineered humanized anti-IL-6 mAb
# Key:
# [1] = tested on: highly HLA sensitized kidney transplant recipients; assay: Experience with anti-IL-6/IL-6R+CTLA4-Ig, CNI-free and MMF-free, in human kidney transplant recipients (case courses); type: in vivo
# Excerpt: Four patients were maintained on CNI-free and MMF-free immunosuppression on anti-IL-6R or anti-IL-6+CTLA4-Ig for a prolonged time period (years) after transplant. These patients received two infusions per month as their standard immunosuppression.
# [2] = tested on: monkeys; conditions: monkey, in vivo; cited from earlier work
# [3] = in vivo; cited from earlier work
# [4] = tested on: Treg cells (CD4+, CD25+, CD127dim, FoxP3+); assay: Tregs by flow cytometry in clazakizumab-treated HLA sensitized patients; type: in vivo, human; conditions: for Mean Treg value: baseline 3.2+1.09%, in CD4+ cells
# Description: (§1) As part of a phase I/II trial of clazakizumab for desensitization, HLA sensitized patients received anti-IL-6, 25 mg SC monthly×6 doses with monitoring of HLA antibody levels and Tregs. Patients were treated pre- and post-transplant with clazakizumab. Transplanted patients received monthly clazakizumab 25 mg subcutaneously starting 5-7 days post-transplant for 12 months. Tregs were determined by flow cytometry as CD4^+, CD25^+, CD127^dim, FoxP3^+ cell populations in CD4^+ cells. Determinations were made at baseline, at transplantation and day 180 post-transplant.
# [5] = tested on: HLA antibodies (class I and class II); assay: clazakizumab desensitization trial (NCT03380962): HLA antibody levels pre- and post-clazakizumab; type: in vivo, human
# Description: (§2) Patients entered into the afore-described clazakizumab desensitization trial (NCT03380962) where 75% were in the 99-100% Panel Reactive Antibody (PRA) range received clazakizumab 25 mg subcutaneously monthly for up to 6 months. If transplanted, they received continued clazakizumab for up to 6 M post-transplant. This group of patients are exceedingly difficult to transplant due to high likelihood of severe antibody mediated rejection and graft loss post-transplant. Antibody levels, pre-post-transplant and Treg cells were monitored at concomitant time points.
# as §1
# [6] = tested on: highly HLA sensitized patients (HLAi kidney transplant); assay: clazakizumab desensitization trial: transplantation, rejection episodes and graft loss; type: in vivo, human; conditions: for highly sensitized patients able to receive transplants: after clazakizumab desensitization
# Description: as §2, §1
# [7] = tested on: donor specific antibodies; assay: clazakizumab desensitization trial: donor specific antibodies pre- and post-transplant; type: in vivo, human
# Description: as §2
# Transplant patients who were treated as described in the previous example were also monitored to assess the effect of clazakizumab on donor specific antibodies. Particularly, levels of donor specific antibodies were monitored in transplant patient samples pre- and post-transplant.
# [8] = tested on: patients/subjects taking clazakizumab; conditions: human, in vivo, cited from earlier work
# [9] = post-transplant on clazakizumab
molecule,measurement,setting,value
C=CC[C@@H]1/C=C(\C)C[C@H](C)C[C@H](OC)[C@H]2O[C@@](O)(C(=O)C(=O)N3CCCC[C@H]3C(=O)O[C@H](/C(C)=C/[C@@H]3CC[C@@H](O)[C@H](OC)C3)[C@H](C)[C@@H](O)CC1=O)[C@H](C)C[C@@H]2OC [tacrolimus],biopsy toxicity finding,"[1]; patient, three years after anti-IL-6R start, tapered off",toxicity seen on a biopsy
tocilizumab,duration of stable course with declining SCr,[1]; person on CTLA4-Ig + tocilizumab monthly,over 1.5 years
same,SCr course,"[1]; person, chronic ABMR, on CTLA4-Ig, converted from CELLCEPT to tocilizumab monthly",stable with declining SCr
B1,monkeys with retained placentas in which excessive uterine hemorrhage led to moribund status,[2],3 of the 5
same,elimination half-life (t1/2),[3],about 30 days
same,Mean Treg value,"[4]; at transplant, p=NS",3.5+1.75%
same,change in Treg cells,"[4]; day 180 post-transplant, still on anti-IL-6 therapy",significant increase; also recorded: dramatic increase
same,Mean Treg value,"[4]; day 180 post-transplant, p=0.008",12.6+9.3%
same,Mean MFI for HLA cl,"[5]; post claza, pre-desensitization 13062±3123, p=0.05, nine transplanted patients",8585±4597 MFI
same,Mean MFI for HLA cll,"[5]; post claza, pre-desensitization 13519±2966, p=0.03, nine transplanted patients",8344±4836 MFI
same,impact on HLA antibodies (class I and class II),[5]; pre- vs post-clazakizumab 25 mg SC monthly,significant reductions; also recorded: reduced
same,highly sensitized patients able to receive transplants,[6],all of these patients and 9/10
same,highly sensitized patients able to receive transplants,[6]; listed as claza,10 patients
same,grafts lost due to rejection,[6]; [9],no grafts were lost; also recorded: no graft loss
same,transplant patients with rejection episodes,[6]; [9],Two of the ten and 2 of 10
same,donor-specific antibodies present prior to transplant,[7]; at transplant,significantly reduced
same,DSA status of DSA+ patients,[7]; by day 180 post-transplant,negative
same,donor-specific antibodies present prior to transplant,[7]; post-transplant,disappeared
same,pathogenic antibodies,[7]; up to 3 months post-transplant,significant reduction
same,infusion reactions,[8]; iv,no infusion reactions
same,severity of injection site reactions,[8]; sc,mild or moderate
same,demyelinating disorder events,[8],rarely reported
same,malignancies,[8],no imbalance of malignancies
same,outcome of pregnancies in subjects taking clazakizumab,[8],one spontaneous abortion
same,reactivation of viral and other serious infections (e.g. EBV or TB),[8],rarely reported
